Measured values: patent US20080058263A1 (published 2008)

T1: VEGFR-3-Fc (UniProt P35916 25-328)
T1 construct: domain: first three Ig domains; conditioned supernatant of 293T cells; also called VEGFR-3-Fc fusion protein; not shown: Fc fragment of the pIg vector
T1 sequence (looked up): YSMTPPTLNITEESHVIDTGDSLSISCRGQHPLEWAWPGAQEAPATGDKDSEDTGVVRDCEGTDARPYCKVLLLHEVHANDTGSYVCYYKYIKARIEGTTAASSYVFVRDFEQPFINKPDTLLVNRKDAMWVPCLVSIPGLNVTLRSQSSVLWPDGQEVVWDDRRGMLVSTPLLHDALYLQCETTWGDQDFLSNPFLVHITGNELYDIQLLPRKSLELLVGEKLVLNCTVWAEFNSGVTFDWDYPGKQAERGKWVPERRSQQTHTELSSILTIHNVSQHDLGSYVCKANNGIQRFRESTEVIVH


How the values were obtained:
Assay in all cases: receptor-Fc IP
VEGFR-1-Fc = molecular target: T2, VEGFR-1-Fc (UniProt P17948 27-338)
T2 construct: domain: first three Ig domains; expressed in Drosophila S2 cells, purified on Protein A sepharose; also called VEGFR-1-Fc fusion protein; not shown: Fc fragment from the Signal-pIgPlus vector
Outline: (§1)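 Binding of ligand from sample supernatant measured by pentahistidine-antibody immunoprecipitation. IP mix: PBS with 1.5% BSA, 0.06% Tween 20, 3 μg/ml heparin and 400 ng/ml fusion protein, added 1:2 to sample supernatant.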

VEGFR-2-Fc = molecular target: T3, VEGFR-2-Fc (UniProt P35968 20-322)
T3 construct: domain: first 3 Ig domains; conditioned supernatant of 293T cells; also called VEGFR-2-Fc fusion protein; not shown: Fc fragment of the pIg vector
Outline: as §1

VEGFR-3-Fc = molecular target: T1, VEGFR-3-Fc
Outline: as §1

T2 sequence (P17948 27-338): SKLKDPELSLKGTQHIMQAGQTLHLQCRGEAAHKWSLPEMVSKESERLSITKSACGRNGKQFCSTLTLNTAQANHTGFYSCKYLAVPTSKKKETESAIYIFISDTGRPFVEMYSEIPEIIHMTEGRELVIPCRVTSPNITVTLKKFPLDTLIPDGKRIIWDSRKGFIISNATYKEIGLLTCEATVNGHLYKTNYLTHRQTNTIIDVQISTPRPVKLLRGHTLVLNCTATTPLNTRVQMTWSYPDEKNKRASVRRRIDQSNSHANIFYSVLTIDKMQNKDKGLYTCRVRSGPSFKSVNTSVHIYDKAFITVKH
T3 sequence (P35968 20-322): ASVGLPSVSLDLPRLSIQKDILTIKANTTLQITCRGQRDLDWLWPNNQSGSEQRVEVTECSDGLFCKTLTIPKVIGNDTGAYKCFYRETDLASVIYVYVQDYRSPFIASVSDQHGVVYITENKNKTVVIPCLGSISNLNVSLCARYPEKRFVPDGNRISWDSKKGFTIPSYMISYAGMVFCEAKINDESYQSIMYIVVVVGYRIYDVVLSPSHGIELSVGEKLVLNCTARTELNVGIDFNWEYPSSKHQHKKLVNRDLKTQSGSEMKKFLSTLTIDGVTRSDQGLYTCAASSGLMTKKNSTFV

Binder	binding result (VEGFR-1-Fc)	binding result (VEGFR-2-Fc)	binding result (VEGFR-3-Fc)
44-5 (ligand) AHYNTEILKFMDVYQRSYCHPREVCIDVGKEFGVATNTFFKPSCVPLMRCGGCCNDEGLECVPTEESNITMQIMRIKPHQGQHIGEMSFANHTSCRCMSKLD	no binding	no binding	no binding
44-7 (ligand) AHYNTEILKFMDVYQRSYCHPREVCIDVGKEFGVATNTFFKPSCVPLMRCGGCCNSEGLQCVPTEESNITMQIMRIKPHQGQHIGEMSFANHTSCRCMSKLD	no binding	no binding	no binding
61-5 (ligand) GQNHHEVVKFMDVYQRSYCHPREVCIDVGKEYPDEIEYIFKPSCVPLMRCGGCCNDEGLECVPTEESNITMQIMRIKPHQGQHIGEMSFANHTSCRCMSKLD	no binding	no binding	no binding
61-7 (ligand) GQNHHEVVKFMDVYQRSYCHPREVCIDVGKEYPDEIEYIFKPSCVPLMRCGGCCNSEGLQCVPTEESNITMQIMRIKPHQGQHIGEMSFANHTSCRCMSKLD	no binding	no binding	no binding
63-7 (ligand) GQNHHEVVKFMDVYQRSYCHPREVCIDVGKEYPDEIEYIFKPPCVSVYRCGGCCNSEGLQCVPTEESNITMQIMRIKPHQGQHIGEMSFANHTSCRCMSKLD	no binding	binds	binds
81-5 (ligand) AHYNTEILKFMDVYQRSYCHPIETLVDIFQEYPDEIEYIFKPSCVPLMRCGGCCNDEGLECVPTEESNITMQIMRIKPHQGQHIGEMSFANHTSCRCMSKLD	binds	binds	no binding
81-7 (ligand) AHYNTEILKFMDVYQRSYCHPIETLVDIFQEYPDEIEYIFKPSCVPLMRCGGCCNSEGLQCVPTEESNITMQIMRIKPHQGQHIGEMSFANHTSCRCMSKLD	binds	binds	no binding
83-7 (ligand) AHYNTEILKFMDVYQRSYCHPIETLVDIFQEYPDEIEYIFKPPCVSVYRCGGCCNSEGLQCVPTEESNITMQIMRIKPHQGQHIGEMSFANHTSCRCMSKLD	binds	binds	no binding
83-9 (ligand) AHYNTEILKFMDVYQRSYCHPIETLVDIFQEYPDEIEYIFKPPCVSVYRCGGCCNDEGLECVPTEESNITMQIMRITVPLSQGPKPVTISFLQHNKCECRPKKD	binds	no binding	no binding
83-11 (ligand) AHYNTEILKFMDVYQRSYCHPIETLVDIFQEYPDEIEYIFKPPCVSVYRCGGCCNSEGLQCVPTEESNITMQIMRITVPLSQGPKPVTISFLQHNKCECRPKKD	binds	binds	no binding
83-13 (ligand) AHYNTEILKFMDVYQRSYCHPIETLVDIFQEYPDEIEYIFKPPCVSVYRCGGCCNDEGLECVPTEESNITMQIMRITVPLSQGPKPVTISFANHTSCRCMSKLD	binds	no binding	no binding
83-15 (ligand, clone entry) AHYNTEILKFMDVYQRSYCHPIETLVDIFQEYPDEIEYIFKPPCVSVYRCGGCCNSEGLQCVPTEESNITMQIMRITVPLSQGPKPVTISFANHTSCRCMSKLDL	binds	binds	no binding
72-9 (ligand) GQNHHEVVKSIDNEWRKTQCMPREVCIDVGKEFGVATNTFFKPPCVSVYRCGGCCNDEGLECVPTEESNITMQIMRITVPLSQGPKPVTISFLQHNKCECRPKKD	no binding	no binding	no binding
22-9 (ligand) AHYNTEILKSIDNEWRKTQCMPREVCIDVGKEFGVATNTFFKPPCVSVYRCGGCCNDEGLECVPTEESNITMQIMRITVPLSQGPKPVTISFLQHNKCECRPKKD	no binding	no binding	no binding
22-11 (ligand) AHYNTEILKSIDNEWRKTQCMPREVCIDVGKEFGVATNTFFKPPCVSVYRCGGCCNSEGLQCVPTEESNITMQIMRITVPLSQGPKPVTISFLQHNKCECRPKKD	no binding	no binding	no binding
24-9 (ligand) AHYNTEILKSIDNEWRKTQCMPREVCIDVGKEFGVATNTFFKPSCVPLMRCGGCCNDEGLECVPTEESNITMQIMRITVPLSQGPKPVTISFLQHNKCECRPKKD	no binding	no binding	no binding
32-9 (ligand) GQNHHEVVKSIDNEWRKTQCMPIETLVDIFQEFGVATNTFFKPPCVSVYRCGGCCNDEGLECVPTEESNITMQIMRITVPLSQGPKPVTISFLQHNKCECRPKKD	no binding	no binding	binds
32-11 (ligand) GQNHHEVVKSIDNEWRKTQCMPIETLVDIFQEFGVATNTFFKPPCVSVYRCGGCCNSEGLQCVPTEESNITMQIMRITVPLSQGPKPVTISFLQHNKCECRPKKD	no binding	no binding	binds
34-9 (ligand) GQNHHEVVKSIDNEWRKTQCMPIETLVDIFQEFGVATNTFFKPSCVPLMRCGGCCNDEGLECVPTEESNITMQIMRITVPLSQGPKPVTISFLQHNKCECRPKKD	no binding	no binding	no binding
71-9 (ligand) GQNHHEVVKSIDNEWRKTQCMPREVCIDVGKEYPDEIEYIFKPSCVPLMRCGGCCNDEGLECVPTEESNITMQIMRITVPLSQGPKPVTISFLQHNKCECRPKKD	no binding	no binding	no binding
